Test results from patent US20230029835A1 (KEYMED BIOSCIENCES, published 2023).
Each block holds one binder with its values, some of them ahead of it.

Tests used:
[1] = molecular target: T1, Cynomolgus macaques TSLP recombinant protein (Cynomolgus macaques, UniProt Q969D9 29-159 (human entry), limits assumed, biotinylated in the blocking assays (sites not given)); assay: ELISA on coated cynomolgus TSLP;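 also: Read-out was TMB colorimetric signal measured as absorbance at 450 nm after 10 min development at 37 °C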
T1 construct: also called cyTSLP; biotinylated Cynomolgus macaques TSLP protein
T1 chain: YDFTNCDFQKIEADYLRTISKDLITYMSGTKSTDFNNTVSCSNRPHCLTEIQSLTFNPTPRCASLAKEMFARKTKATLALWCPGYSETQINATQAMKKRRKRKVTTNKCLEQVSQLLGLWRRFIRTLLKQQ

[2] = molecular target: T2, human TSLP recombinant protein (human, UniProt Q969D9 29-159, biotinylated in the blocking and cell-binding assays (sites not given)); assay: ELISA, human TSLP coated at 1 ug/mL, anti-human IgG Fc-HRP, A450
T2 construct: also called biotinylated human TSLP protein

- binding result [1]: binds
- binding result [2]: binds
B1: Ab12 (antibody, V domains shown)
VH: QVQLVQSGAEVKKPGSSVKVSCKASGYTFTDYWMHWVRQAPGQGLEWMGTIDNSDSDTSLNQKFQGRVTITADESSSTAYMELSSLRSEDTAVYYCARSLDGYYDYWGQGTLVTVSS
VL: DIQMTQSPSSLSASVGDRVTITCRASENIYSYLAWYQQKPGKAPKLLIYNARTLPEGVPSRFSGSGSGTDFTLTISSLQPEDFATYYCQHHYTTPWTFGQGTKVEIK
notes: Humanized; also called h39G5VHv12/h39G5VKv1

- binding result [1]: no binding
- binding result [2]: binds
B2: Ab14 (antibody, V domains shown)
VH: EVQLVQSGAEVKKPGESLKISCKASGYTFTDYWMHWVRQMPGKGLEWMGTIDNSDSDTSLNQSFQGHVTISADKSISTAYLQWSSLKASDTAMYYCARSLDGYYDYWGQGTLVTVSS
VL: B1 VL
notes: Humanized; also called h39G5VHv14/h39G5VKv1
